These results are taken from PMC5374059 (Journal of molecular biology, 2016).

Ends that are not written are not given here. Me3 = trimethyl-lysine; Me2 = dimethyl

For orientation: Kd means a measure of binding affinity in units of concentration. A low value points to a tighter complex.

In experiment [1] the target is Set3 PHD finger (wild type, as used in fluorescence and NMR titrations) (yeast) (UniProt P36124). Description: NMR titration.
For experiment [2], the target named is T131M mutant of Set3 PHD (yeast) (UniProt P36124). Briefly: other fluorescence titration.
For experiment [3], the target named is Set3 PHD finger (wild type, as used in fluorescence and NMR titrations) (yeast) (UniProt P36124). Briefly: other fluorescence titration.
Experiment [4] deals with T1, Set3 PHD finger (aa 116-184), crystallised (yeast, UniProt P36124 116-184).
T1 sequence (looked up): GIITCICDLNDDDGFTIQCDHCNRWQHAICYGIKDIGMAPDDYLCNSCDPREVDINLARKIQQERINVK
Description: crystal structure.

In experiment [5] the target is T2, M132T mutant of MLL5 PHD (human, UniProt Q8IZD2 117-181, M132T).
T2 sequence (looked up): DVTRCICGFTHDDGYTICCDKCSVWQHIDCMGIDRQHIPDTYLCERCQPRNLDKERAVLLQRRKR
Briefly: NMR titration.

As for “histone H3K4me1 peptide (residues 1-12 of histone H3) (from UniProt P61830 2-13)”, in experiment [1], the Kd was determined as 790 µM.

“histone H3K4me0 peptide (unmodified, residues 1-12 of histone H3) (from UniProt P61830 2-13)” displayed a Kd in experiment [1] of 1400 µM.

Regarding “histone H3K4me3 peptide (residues 1-12 of histone H3) (from UniProt P61830 2-13)”, the equilibrium dissociation constant (Kd) in experiment [2] amounted to 2.5 µM; in experiment [3] it was 20 µM.

Regarding “histone H3K4me2 peptide (residues 1-12 of histone H3) (from UniProt P61830 2-13)”, the equilibrium dissociation constant (Kd) in experiment [2] is 8 µM; in experiment [3], 30 µM.

B1: histone H3K4me2 peptide (residues 1-12 of histone H3) (peptide, UniProt P61830 2-13, looked up)
peptide: ARTK(Me2)QTARKSTG
For B1, the binding result in experiment [4] was “binds”.

B2: histone H3K4me3 peptide (residues 1-12 of histone H3) (peptide, UniProt P61830 2-13, looked up)
peptide: ARTK(Me3)QTARKSTG
Consider B2, for which the binding result in experiment [4] is on record as “binds”. Also, in experiment [5], the “fold selectivity for H3K4me3 over H3K4me2” value is 1.5 fold.
